From patent publication US20180208664A1 (APOGENIX, published 2018) come the findings set out here.

Ends that are not written are not given here.

One test addresses T1, peptide C-YMRNSKY (also: immobilized to BSA or ovalbumin).
T1 construct: Printed as 'C-YMRNSKY'; the leading C is read as an added cysteine
T1 peptide: CYMRNSKY
In words: peptide ELISA, peptide on BSA or ovalbumin coated. Here is the method: Binding of the rabbit monoclonal antibody was detected by incubation with goat anti rabbit IgG-Peroxidase (Sigma; dilution 1:5000) and subsequent detection of the converted Peroxidase-substrate TMBone at a wavelength of 450 nm in an ELISA reader (FIG. 13).
Binding of the rabbit monoclonal antibody was detected by incubation with goat anti rabbit IgG-Peroxidase (Sigma; dilution 1:5000) and subsequent detection of the converted Peroxidase-substrate TMBone at a wavelength of 450 nm in an ELISA reader (FIG. 14).
(In general: An ELISA detects its analyte on a solid surface through an enzyme-linked reagent.)

The target in test [1] is T2, APG296 (human CD95L-RB69) (human).
T2 construct: also called recombinant CD95L; human CD95L (APG296)
T2 chain: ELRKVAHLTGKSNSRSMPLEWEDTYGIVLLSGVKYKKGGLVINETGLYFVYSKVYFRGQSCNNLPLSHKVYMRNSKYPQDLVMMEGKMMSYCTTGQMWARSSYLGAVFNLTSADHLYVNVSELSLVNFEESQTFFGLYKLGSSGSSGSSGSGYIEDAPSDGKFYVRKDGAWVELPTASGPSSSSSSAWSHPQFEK
As to the kind of experiment: ELISA, APG296 coated.

Another test has as its target T3, APG707 (LIGHT-RB69) (human).
T3 construct: Structurally related TNF-superfamily protein with the same trimerisation scaffold as APG296; also called human LIGHT (APG707)
T3 chain: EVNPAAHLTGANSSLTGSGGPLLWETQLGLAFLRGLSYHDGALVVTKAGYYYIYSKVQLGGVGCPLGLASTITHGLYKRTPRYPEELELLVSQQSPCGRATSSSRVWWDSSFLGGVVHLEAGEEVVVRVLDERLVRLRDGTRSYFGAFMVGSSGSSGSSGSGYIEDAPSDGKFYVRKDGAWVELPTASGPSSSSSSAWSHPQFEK
As to the kind of experiment: competition ELISA, APG296 coated, APG707 as soluble competitor. As for the experimental part: For the competition ELISA, 96-well microtiter plates were coated with 10 μg/ml APG296 (CD95L-RB69). […] Binding of the rabbit monoclonal antibodies was detected by incubation with goat anti rabbit IgG-Peroxidase (Sigma; dilution 1:5000) and subsequent detection of the converted Peroxidase-substrate TMBone at a wavelength of 450 nm in an ELISA reader (FIG. 6).

In test [2] the target is T4, epitope-comprising peptide YMRNSKYPQD (also: coupled to BSA).
T4 peptide: YMRNSKYPQD
As to the kind of experiment: QCM; immobilized BSA-coupled peptide.

Test [3] concerns the target T5, epitope-comprising peptide YMRNSKYPQD (also: coupled to BSA).
T5 peptide: YMRNSKYPQD
As to the kind of experiment: QCM (Attana A100), peptide-BSA immobilized, antibody as analyte. As for the experimental part:
The A100 allows to investigate molecular interactions in real-time based on the Quartz Crystal Microbalance (QCM) technique. For this purpose, the respective epitope comprising peptide was coupled to BSA and subsequently immobilized to the surface of a carboxyl-activated QCM-chip. […] Binding (kₒₙ) and dissociation (koff) was analyzed in real time, and the respective KD was calculated (see table in FIG. 16).

Another test addresses T6, APG293 (human CD95L-T4) (human).
T6 chain: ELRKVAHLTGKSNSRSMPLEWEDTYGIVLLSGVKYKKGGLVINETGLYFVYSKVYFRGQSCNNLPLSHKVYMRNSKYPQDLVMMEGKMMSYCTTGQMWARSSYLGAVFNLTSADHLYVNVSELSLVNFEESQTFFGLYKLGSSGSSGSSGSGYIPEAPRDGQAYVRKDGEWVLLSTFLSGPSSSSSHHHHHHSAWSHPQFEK
As to the kind of experiment: cell-based or functional assay.

B1: rabbit monoclonal anti-CD95L antibody clone 145-12 (antibody, V domains shown)
VH: QSLEESGGDLVKPGASLTLTCTASGFSFSSGYDMCWVRQAPGKGLEWIACIDTDNDATYYASWAKGRFTISKPSSTTVLLQITSLTAADTATYFCATTHGDYVAFKLWGPGTLVTVSS
VL: QVLTQTASSVSAAVGGTVTINCQSSQSVYKNNDLSWYQQKPRQPPKLLIYQASKLASGVPSRFKGSGSGTQFTLTIGDLECDDGATYYCAGGYTASIYAFGGGTEVVVKG
notes: Rabbit monoclonal IgG from a hybridoma subclone; Only VH and VL are tied to the clone by name; also called mAB145-12; mAb145-12
As a reminder, the Kd is the free concentration of one partner at which half of the binding sites on the other are occupied at equilibrium, for simple one-to-one binding. With B1, in the test with peptide C-YMRNSKY, the binding result is “no binding (tested: 2 µg/ml)”. The binding result in test [1] is given as “binds”. In the test with APG707 (LIGHT-RB69), the binding result is listed as “no binding (tested: 100 µg/ml)”. The molecule further showed a Kd in test [2] of 7.22 nM. The binding result in test [3] is on record as “binds”. Moreover, in the test with APG293 (human CD95L-T4), the “EC50, Assay 1: antagonism of CD95L-T4-induced apoptosis on Jurkat A3 cells” value came to 0.187 µg/mL; the “EC50, Assay 2: antagonism of CD95L-T4-induced apoptosis on Jurkat A3 cells” value worked out at 0.198 µg/mL; the “EC50, Assay 3: antagonism of CD95L-T4-induced apoptosis on Jurkat A3 cells” value is 0.225 µg/mL; the “EC50, Assay 4: antagonism of CD95L-T4-induced apoptosis on Jurkat A3 cells” value was determined as 0.192 µg/mL. Moreover, the “EC50, Mean: antagonism of CD95L-T4-induced apoptosis on Jurkat A3 cells” value with APG293 (human CD95L-T4) is 0.201 µg/mL.
